From PMC7064778
Like-named read-outs stand apart in the source and are kept apart here.

What was measured:
[1] = biological target: PyoS5_(1–315) (P. aeruginosa) (UniProt Q9I4Y4); assay: SPR
[2] = biological target: PyoS5_(1–315) (P. aeruginosa) (UniProt Q9I4Y4); assay: SPR; remark: listed apart in the source

For TonB1_(109–342) (domain or fragment), the Kd [1] was 241 nM and the Kd [2] was 230 nM.
